Measurements taken from PMC12035560, “Structures of Mycobacterium tuberculosis isoprenyl diphosphate synthase Rv2173 in substrate-bound forms” (Acta Crystallographica Section F: Structural Biology …, 2025).

Target: the molecule itself
Assay: crystal structure

B1: Mycobacterium tuberculosis isoprenyl diphosphate synthase Rv2173 (enzyme)
chain: LESTSLYKKAGSAAALFRFKKEPFTMAGAITDQLRRYLHGRRRAAAHMGSDYDGLIADLEDFVLGGGKRLRPLFAYWGWHAVASREPDPDVLLLFSALELLHAWALVHDDLIDRSATRRGRPTAQLRYAALHRDRDWRGSPDQFGMSAAILLGDLAQVWADDIVSKVCQSALAPDAQRRVHRVWADIRNEVLGGQYLDIVAEASAAESIESAMNVATLKTACYTVSRPLQLGTAAAADRSDVAAIFEHFGADLGVAFQLRDDVLGVFGDPAVTGKPSGDDLKSGKRTVLVAEAVELADRSDPLAAKLLRTSIGTRLTDAQVRELRTVIEAVGARAAAESRIAALTQRALATLASAPINATAKAGLSELAMMAANRSA
notes: also called tagged Rv2173; not shown: His6, N-terminal, kept
- stoichiometry N: 2
